Substitutions are numbered along the chain they refer to. Names and notes keep the numbering of the source.
Experiments:
[1] = molecular target: T1, Streptomyces Subtilisin Inhibitor (SSI), SSI-like protein produced by PG1181
T1 chain: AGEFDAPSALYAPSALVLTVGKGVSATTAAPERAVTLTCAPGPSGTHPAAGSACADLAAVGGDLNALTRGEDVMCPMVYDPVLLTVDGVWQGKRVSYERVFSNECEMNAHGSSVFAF

[2] = molecular target: protease (not named in the Ki determination); experiment: enzyme inhibition kinetics with succinyl-Ala-Ala-Pro-Phe-p-nitroanilide in 50 mM Tris pH 8; steady-state rate against the rate without inhibitor; equations of Goldstein

B1: subtilisin BPN′ (protein)
chain: AQSVPYGVSQIKAPALHSQGYTGSNVKVAVIDSGIDSSHPDLKVAGGASMVPSETNPFQDNNSHGTHVAGTVAALNNSIGVLGVAPSASLYAVKVLGADGSGQYSWIINGIEWAIANNMDVINMSLGGPSGSAALKAAVDKAVASGVVVVAAAGNEGTSGSSSTVGYPGKYPSVIAVGAVDSSNQRASFSSVGPELDVMAPGVSIQSTLPGNKYGAYNGTSMASPHVAGAAALILSKHPNWTNTQVRSSLENTTTKLGDSFYYGKGLINVQAAAQ
[1]
  protease activity (hydrolysis of N-succinyl-Ala-Ala-Pro-Phe-p-nitroanilide, increase in absorbance at 410 nm): SSI inhibits subtilisin BPN′ and a Y217L variant of BPN′

B2: Y217L variant of subtilisin BPN′ (protein)
chain: B1 chain with Y217L
[1]
  protease activity (hydrolysis of N-succinyl-Ala-Ala-Pro-Phe-p-nitroanilide, increase in absorbance at 410 nm): SSI inhibits subtilisin BPN′ and a Y217L variant of BPN′

B3: M73P D83C SSI (protein)
chain: T1 chain with M77P, D87C
[2]
  Ki: 3 nM
